Data as given in the domain aggregation screens of Martell et al. (2025).

Assay: soluble fraction after stress (log2 fold change); higher = more stays soluble; pooled small domains, quantitative proteomics
Conditions: stress: 75 degC
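Note: 20 min heating vs room temperature control held 20 min.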

Row | Sequence | soluble fraction (log2)
1 | HMARRTPPPTVSELNALLRVAAPHIQRVILLGIYTGARIGPSELFSLKWDDVDLTRGVIGIRL | -0.0659
2 | HMARTDVKLREVAQELLRMGLLEESLRPHLYRTALASMERLNATLEPLDLIARADEIRGLVFLAVRH | -2.73
3 | HMARVSGIDLPKNKRGYIGLTYIYGIGRSTALHILNSAGVDPEKKVHEWNDDETTAIRNIINAEIKVEGAL | -0.631
4 | HMASAKTVAQSGTYKFAKTTAIKSSASDAASTVGTYYKGNTVNYNAKVTTNGQTWLRYTSYSGAQYYVKVS | -3.66
5 | HMASANMPDVLGLDAETAKQVLAAKGFTKVEIYPMESSEPANRVVRQSEDRDTMVALTKEILLGVSNGS | 0.0531
6 | HMASENISYSQFINQVKNSMVESVSIEADGKTISGKYKSGSSFVTYGLNDPKLVDDLLSNNVEIL | 0.143
7 | HMASGLITEEQAKSKALAHAGLSASQVNFIWVKQDWEDGRRVYEVEFYTDDYQEYDYEIDARTGEILSFDY | -1.84
8 | HMASIGTATVTADNLRLRSEAGTGAETLTMAPKGAEVTVEEDAGDGWYKVTYGDTEGYMSGEWLKITLA | -0.0355
9 | HMASLIGEEKALQIALEHAGVALENVAYSQVKLENDDGRWEYDTEFYSGSKEYDYEIDASTGEILGYDHD | 0.0872
10 | HMASLSITVNGETRRAAPGSIADLVRAIGLDPAKVAVERNGEIAPRSTLADVALADGDVLEIVHFVG | -0.359
11 | HMASMEDILAEAKTKFQEGDLFKSVNEGIQGTHKLTLPLRIKESRIVDASGAAVYREGIWATVDK | 0.166
12 | HMASMNPVWLEFPNIPWGSAGWRMGWGEDYMRRWAKWYISLAEVERQSYKSDWPEPQEWEGFYAFMEHGT | -1.85
13 | HMASPEIAFLNKFYQLSNTVNEISVMKIVKNYQEKYQQRISIEQMAKTLKTMGYAVRNNIISNIEEAPV | -1.53
14 | HMASPRVWKDASSGRTLTGEFVELTKDAVKVRRANGDVVSLPLSRLTEEDITFAKGASETGGA | 0.198
15 | HMASVLTAKLSEREVDVLNLLARGFTNADIAAQLHLSEGTVRNHVSTIFAKLDVNDRTQAAVIAIRHGL | -2.52
16 | HMASVLTGMLGRVTGELAPKGIVMVGNETWTAVSEDDSVIRIGEPVEVRSVEGLILTVFRRID | -2.66
17 | HMATAADLLQSATGVPRSDALLLLAKLLGVAKERLIAHPETVVSEKTQATFSDWIERVRGGFPTTYLLG | -0.393
18 | HMATAEETTPLWARNRLSHAIFGPGSVTGEDERSFEVAFDNGDTLNFSKKSAHLYFTAMSSR | -0.169
19 | HMATARPPPPPESRVEVLFDGRWYAGTVVGGALDEHRATVFFDADRLSQVINFAETGIRVLGT | -0.123
20 | HMATEYIIPTVTNKKLEEAIGIAQLRGFEISVDEYKPSDIDEGTVLEQSPAAGTNAKQGDTISVTVSSG | 0.476
21 | HMATFTPYLVRITASVLNIRKGPGTTYAVTGQIKDRGVYTIVEQKGNWGRLKSGAGWISLSYTKK | -3.25
22 | HMATPAFEMYKVRRGDTPAGLAKEWGFPDMASFYRINPDARSDWKRGLQLVKPMNEMAVLQATA | -0.302
23 | HMATPKYMELVRWINEQIESKNLVPGQKMYSENTLKEMFGVSRQTVRHAIGVLENEGVIRRIQGSGTYIN | -1.51
24 | HMATPSTGQVSVVRLNLRVSPSISSPVVTRLTQGDTVKILAASDDGRWYKVATADGRTGWLYTIYITAE | -1.34
25 | HMATQTGTVKWFNEGKGFGFIAPDDGSKDLFAHFSEIKTTGFKTLAEAQRVEFEVTEGRKGLQASNIK | 0.442
26 | HMATRLPFGFAKRFGVLVEGKDDQITVYHKDGLQTAVILEIQRYLARPFRFEAVTPEEFERRLGLAYQS | -2.44

Row | Sequence | soluble fraction (log2)
27 | HMATSNDTQITGSLALRFDGSGDTFTVNVNGDDKLEINTEGTVIYKPLTTAPTYVSGGLFFSSSGDFYVG | 0.00147
28 | HMATTIDFTVGDDVQVMNGPLESFTGKVTELNEASQKVKVDVVMFGRVTNVELDFVQVKKIT | -1.04
29 | HMATTIEAPMPGKILDVKVNPGQAVSYGQVVLTMEAMKMETEIVAPADGTVASVLVKSGDMVETGAALVSL | -0.344
30 | HMATTMSADWRPSEDAVGILVNAEINARFIEDAIPEFVLYWRERGAVHGAWNSKFIEHIRRQWAKFSAS | -2.84
31 | HMATTPEETILEYINKNNRISKQEIADLMGITRDGVSYHIKKLRKNGLLEWIGSPSNGHWEIIE | 0.38
32 | HMATVHPIRIQGGMTTQQGGKTVWLWVSDEGRLMTEDEIAGESGGTVSSRMVRGVRVLTGTGVIYG | -1.96
33 | HMATVIDVATTLGRPITDPDEQRQVLNWIGKTERIISARLGDLAALDRQILADVISEVVARRARN | -0.495
34 | HMATVNIGNLTFTHKGDYASGTTYAKNDVVYYSTNGNAYIAKQATQGNAPTSTAHWDVFAAGSGG | 0.245
35 | HMAVDAASSTIGKNVEVSVANEKGDYENFNGKVKSASIKDGVVYLELELKDTGEIKEVPYSSLTKIT | 0.0437
36 | HMAVDPSVLTRRERQALAWIARGLSNKEVARGLNLAESTVKVHVQSILRKLNLTSRVQAAVYAIEHGIDK | -3.08
37 | HMAVFRVGDKVKSMEGMIGEVRGINGRLIQVATPYGLRDYYPHQITKVENPLAAAPAPLNEEA | 0.767
38 | HMAVGVFQKEDGYWGYRFSIIVDGKTIARRKFTDENGSKLRTKSEAVKARAAAMVAARMERVS | -3.46
39 | HMAVIILDEPTLGLDPAVRISLWQAIQSARDSTMSAFLITTHYIKEVADYLSAVKILDHGREVASGNPSAL | -0.313
40 | HMAVKLELYRVFKEVAETGNISAAAKNLYISQSAVSQSIKQLETALQARLFARSPRGVTLTGEGQMLYQYV | -1.5
41 | HMAVKNAQIDVQQFFYSKSGEVDFGRKIKAIQSHFTPERLQSFTAAVPPSQWVSQLQVMWDSL | -2.12
42 | HMAVLGIQPVFHRSTGQTVYKSSVNTAKGRVYLGLFPTLTEALEIKLKYMQEHGHTKGITNLTNKLKEL | -1.05
43 | HMAVPFTIDVSQNGRYFIEEDNQVVEVSIGFLEDRFLRIIKSNPDIEVIIRGDAKASYESIAELLAVLQ | -0.904
44 | HMAVQPMDQVKAWLAEDNPADIKLLVPVLQKLDLLDYEQVRGEVADRAGVRKSLLDEAVKGN | 0.0888
45 | HMAVRTELLALPAGWHGDASRLSTALAALQGVREAVVIASEGVAYLKVHGHDWDRDGARELLQN | -1.12
46 | HMAVSGRGSIIGGVATVLDDFADSGKVWLEGEAWQARSSVPLKQDQEVVVRAMDGLVLVVEPVA | -0.442
47 | HMAVSNWQKLVSSIQTQLKILALYHGPEDGIYGPNTRSAIMLYEENIGLPVTGEPSRELLAHMLDQTD | -1.64
48 | HMAVTNLTAKQISDTRWRVTWDSTLASPTYYVYRDGLLMMQTRQELYEFDAARGEQVQIDVLDDMAAAPAE | -0.853
49 | HMAWAVRAGEGVLIRAGQPGFSATTRGTALSNGAIGEGVRVRNLGSGKEIQAWVVDKGEVETR | 0.00511
50 | HMAWIAVATKEDYSEYEWKELSPTTDWSTQTFDLGDLAGKTIYAVKMFFDHDTDVKDYKFNLGQLSITSN | -0.189
51 | HMAYRLDVRNQTKGTYLVIQKKYWDKEKKQSRTKHHMSLGYVHDLQKLYSDPITHYKEVINQMNAEEKG | -2.09
52 | HMAYSEEDRRRVREELLTTALKLMSTQGIQHTTVEQVYRSVGISRSFFYAFFPTKEDLIVEAL | 0.0495

Row | Sequence | soluble fraction (log2)
53 | HMDAAANTLRILKALSESPMSADRLAELLMEEGSGRNPRTIRRYIRALREAGFGVEHREGRYVL | -0.387
54 | HMDAAEVEATARAMLRRSALNLLAQREQTAFELKQKLSRRFPEQAALLDEVIERLQEQGLQDDTR | -0.0318
55 | HMDAEEISILLEKAVLQLPEKQKMIFQLKYFEDLSYKDIQIITGGSIGGLKANYHHAVTKIEKLLS | 0.123
56 | HMDAEETLGARLRRLRQARGLSLAGLAQAAGLSKPSIWAWENGTTAPRRTSLLALARALDVPEQQLTGV | -0.715
57 | HMDAEKHIVTPEAGLRLDRALTDALPNLSRSRVKQLINEGLVTTENKTITAPSYRVKYGDSFEISIPPPT | -0.16
58 | HMDAIIVPSVLKMKPFEAEEKLSALGLRMKINDTVYIDNMKPGVIVEQSPTAEEDVKTDRVIYVIVNA | -0.327
59 | HMDAKQLQSLKNNNEQLAGFIVRLTNFYEGLSPDIDAELSKLRSHLSGKVDYTLATVSINKINQLFMLEP | -2.97
60 | HMDALIWYVSRGQQKFGPFNYFGVLKALQDKSVFEFDYVWKEGTENWVRLAEHELFSQEKVRELLA | -0.554
61 | HMDAMLGEALRLIRVYHDLKQKQAAERLEVSTSYLSEIERGLKTPTLDIIQRYATVFDMPVSSIMFFSENL | -3.1
62 | HMDAMLSEQLREKRGELLIEVDAIAGNALRWATLSAEQQDAWAVYRQALLDVPQQAGFPNDVVWPINPN | -0.42
63 | HMDAPKPDIGMSTDQIRSSLGQPGSQTRLETGGGRIYELWIYLYPDGKELQIYFDNAKVVKMEALS | -1.19
64 | HMDAPLIIAETRVDVPDATVSDAVMMLDLRNTNALLFKNSGSGVLNMVYRRGDGTIGWGEPQ | -0.011
65 | HMDASKVKIEDLGLSTRTENALVAASIRTAGGLARKSEMDLLSTDGLGEKGITEIKKALSDLGLELK | 0.4
66 | HMDAVSTMIENLRVKTGKSLADWVGLAKGSGADKHGAMVGWLKSEHGLTHGYANLIAHETFRSAA | -0.129
67 | HMDAVTPVLSRIRDARFKRMVLPGDEIEISVTLIDTIGKFFNLSGQIRNKDKISLTVNFALALV | 0.195
68 | HMDDADPYEILGVERDAEDAEIKRAYHDLIRENHPDRLMAEGLPQEMIDVANEKVAFINDAYDRIEKLRGM | -0.193
69 | HMDDENKIEVMINEEKVQLTGKDKYVFVDIFNYIDMDLTRIHGNLVLKLNGENASHNSLLKSGDKIEARWE | -0.746
70 | HMDDERDRLVQQAMEGLSPALREILLLAYFQRMPYNQIAESLRIPLGTVKSRLHAAVAAFAKRWQELNRS | -0.77
71 | HMDDFNLSPREKDVLGHLVKGNSYKMIADELQIGYDTVHSHIKKIYKKLHVNSMSEAVAKALKNKL | 0.332
72 | HMDDGARQLVDQLNRLIANPAVSARIIHGYLILEGRVESEWEKTRTLLLAQVAGLPVIDLITVS | -2.35
73 | HMDDGLTRLTPRENEVLELMAQGRSNTAIAERLVLSYGAVEKNVSSIFTKLDLPLDAGDHRRVLAVLRRLN | -0.668
74 | HMDDGNHTEYIVLEKAKFYDEAGEYEEGRDLVLSFDKYQDNWKLVYTLGVFNKKLNNLEEARKYYKQALE | -0.0263
75 | HMDDHKQHLIDFYHSRKRMPTYTEMMALFGYKSKNAVARLVEKMIDAGIVTKDKLGKLLPTTLFDSVPL | -0.00288
76 | HMDDHLRLSDNERISAMSALATHFTEGRLDTSEFDERTLAASQAKSRGDLRPLFDDLPGQLPAALSP | 0.0298
77 | HMDDKLKKLEEVFEMQEGTLTPDMRLDELEEWDSMTRLSLIVMMEDDYGKKVKRSEVMNYTTVQDIVDSME | -0.0532
